According to the nanobody polyreactivity screen of Harvey et al. (2022):

test: yeast display, Sf9 membrane polyspecificity reagent, FACS + sequencing; frameworks hold sequencing errors
Outline: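 Nanobodies from a synthetic yeast display library (Saccharomyces cerevisiae BJ5465), induced 36–48 hours with galactose, were stained 1 hour at 4 °C with 10% biotinylated, detergent-solubilized Sf9 membrane reagent, enriched on streptavidin microbeads, then FACS-sorted. Anti-HA (expression) and streptavidin (reagent binding) fluorescence set low and high (top ~1%) gates. Polyreactivity labels come from the gate of origin. Genes were colony-PCR amplified, MiSeq 2 × 250 sequenced and filtered by CDR length.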

| Sequence | polyreactivity (PSR sort gate) |
| --- | --- |
| QVQLVESGGGLVQAGGSLRLSCAASGSIFVFYAMGWYRQAPGKERELVAAITRSGGRTYADSVKGRFTISRDNAKNTVYLQMYSLKPEDTAVYYCNAGTYWYNGRYTRSAHDYWGQGTQVTVSS | high polyreactivity |
| QVQLVESGGGLVQAGGSLRLSCAASGSIFVGHAMGWYRQAPGKERELVATISRSGGSTYYADSVKGRFTISRDNAKNTVYLQMNSLKPEDTAVYYCAKTPYRRYSYGGYTYRTYDYWGQGTQVTVSS | low polyreactivity |
| QVQLVESGGGLVQAGGSLRLSCAASGSIFVGNAMGWDRQAPGKERELVATLSWSGGSTYYADSVKGRFTISRDNAKNTVDLQMNSLNPEDTAVYYCAKTPYRRYRYGGYTYRTYDYWGQGTQVTVSS | low polyreactivity |
| QVQLVESGGGLVQAGGSLRLSCAASGSIFVGNAMGWSRQAPGKERELVATISRGARRKYADSVKGRFTISRDNAKNTVYLQMNSLIPEDTAVYYCNKVTSYYVFYTPYYSWGQGTQVTVSS | low polyreactivity |
| QVQLVESGGGLVQAGGSLRLSCAASGSIFVGYAMGWYRQAPGKERDLVAAIDSTVSTYYADSVKGRFTISRDNAKNTVYLQMNSLKPEDTAVYYCAAYPRPDIGYTDGYVWYEFDYWGQGTQVTVSS | low polyreactivity |
| QVQLVESGGGLVQAGGSLRLSCAASGSIFVGYAMGWYRQAPGKERELVAAISTRGGSTYYADSVKGRFTISRDNAKNTVYLQMNSLKPEDTAVYDCAADYLDSTYGYVYGWDDYWGQGTQVTVSS | low polyreactivity |
| QVQLVESGGGLVQAGGSLRLSCAASGSIFVGYAMGWYRQAPGKERELVASITTRGGSTHYADSVKGRFTISRDNAKNTVYLQMNSLKPEDTAVYYCAADSLSNGVLQYLPGYDYWGQGTQVTVSS | low polyreactivity |
| QVQLVESGGGLVQAGGSLRLSCAASGSIFVGYTMGWYRQAPGKERELVAAITSTGGSTSYADSVKGRFTISRDNAKNTVYLQMNSLKPEDTAVYYCAARGRGKTTSVAYYYWGQGTQVTVSS | high polyreactivity |
| QVQLVESGGGLVQAGGSLRLSCAASGSIFVGYTMGWYRQAPGKERELVADITYNGGTTYYADSVKGRFTISRDNAKNTVYLQMNSLKPEDSAVYYCAADYYYGWFPVYYWGQGTQVTVSS | high polyreactivity |
| QVQLVESGGGLVQAGGSLRLSCAASGSIFVGYVMGWYRQAPGKERELVAAISKSGSRTYYADSVKGRFTISRDNAKYTVYLQMNSLKPEDTAVYYCATAGYDADDYWGQGTQVTVSS | high polyreactivity |
| QVQLVESGGGLVQAGGSLRLSCAASGSIFVHNTMGWYRQAPGKERELVAAITRSVGRTYYADSVKGRFTISRDNAKNTVYLQMNSLKPEDTAVYYCAARKNYGSRLSYEYWGQGTQVTVSS | high polyreactivity |
| QVQLVESGGGLVQAGGSLRLSCAASGSIFVHYAMGWYRQAPGKERELVASISTSGGRTRYADSVKGRFTISRDNAKNTVYLQMNSLKPEDTAVYYCAALRWGRRYDYWGQGTQVTVSS | high polyreactivity |
| QVQLVESGGGLVQAGGSLRLSCAASGSIFVIYAMGWYRQAPGKERELVAAISRSGGRTYYADSVKGRFTISRDNAKNTVYLQMNSLKPEDTAVYYCAAEGSTYQGAPGVYYWGQGTQVTVSS | high polyreactivity |
| QVQLVESGGGLVQAGGSLRLSCAASGSIFVIYAMGWYRQAPGKERELVAAITWNGGSTFYADSVKGRFTISRDNAKNTVYLQMNSLKPEDTAVYYCNAVAVSNSGWEYDYWGQGTQVTVSS | low polyreactivity |
| QVQLVESGGGLVQAGGSLRLSCAASGSIFVIYAMGWYRQAPGKERELVAAITWNGGSTVYADSVKGRFTISRDNAKNTVYLQMNSLKPEDTAVYSCNAVAVSNSGWEYDYWGQGTQVTVSS | low polyreactivity |
| QVQLVESGGGLVQAGGSLRLSCAASGSIFVIYTMGWYRQAPGKERELVAVITWSTGNTYYADSVKGRFTISRDNAKNTVYLQMNSLKPEDTAVYYCAARTTSRWRSGAYYYWGQGTQVTVSS | high polyreactivity |

| Sequence | polyreactivity (PSR sort gate) |
| --- | --- |
| QVQLVESGGGLVQAGGSLRLSCAASGSIFVKNVMGWYRQAPGKERELVAAITRGGRTYYADSVKGRFTISRDNAKNTVYLQMNSLKPEDTAVYYCNAYRLSYTYGYWGQGTQVTVSS | high polyreactivity |
| QVQLVESGGGLVQAGGSLRLSCAASGSIFVKYAMGWYRQAPGKERELVAAISRSGTRTYYADSVKGRFTISRDNAKNTVYLQMNSLKPEDTAVYYCAAAATTVRAYEYWGQGTQVTLSS | high polyreactivity |
| QVQLVESGGGLVQAGGSLRLSCAASGSIFVLYAMGWYRQAPGKERELVAAITTGGGTNYADSVKGRFTISRDNAKNTVYLQMNSLKPEDTAVYYCNADAYGTPEFTSYAVRYDYWGQGTQVTVSS | low polyreactivity |
| QVQLVESGGGLVQAGGSLRLSCAASGSIFVNNALGWDRQAPGKDWELVAAISSRGGSTYYADSVKGRFTISRDNAKNTVYLQMHSLKPEDTAVYYCAAEYDGPYYSFYPEQRYYWGQGNQVTVSS | low polyreactivity |
| QVQLVESGGGLVQAGGSLRLSCAASGSIFVNNAMGWYRQAPGKERELVAAIRRSGGNTYYADSVKGRFTISRDNAKNTVYLQLNSLKPEDTAVYYCNVVRRSDSIRAKSRDYWGQGTQVTVSS | high polyreactivity |
| QVQLVESGGGLVQAGGSLRLSCAASGSIFVNNAMGWYRQAPGKERELVAAISRSGTRTYYADSVKGRFTISRDNAKNTVYLQMNSLKPEDTAVYYCAVDYYYRMDYWGQGTQVTVSS | high polyreactivity |
| QVQLVESGGGLVQAGGSLRLSCAASGSIFVNNAMGWYRQAPGKERELVAAISSRSSRTFYADSVKGRFTISRDNAKISVYFHMNSLKPVDTGVYYWAVKKRSPHGDYCGQGTQVTVSS | high polyreactivity |
| QVQLVESGGGLVQAGGSLRLSCAASGSIFVNNAMGWYRQAPGKERELVAAISSRSSRTFYADSVKGRFTISRDNAKNTVYLQMNSLKPDDNAVFYCAVNNRAPDGEYWGLGTQVTVSS | high polyreactivity |
| QVQLVESGGGLVQAGGSLRLSCAASGSIFVNNAMGWYRQAPGKERELVAAISSRSSRTFYADSVKWRFTISRDNAKNTVYLQMNCLKPEDTAVYSCAVKKRAPDGDYWGQGTQVTVSS | high polyreactivity |
| QVQLVESGGGLVQAGGSLRLSCAASGSIFVNYAMGWYRQAPGKERELVAAISGRGGSTYYADSVKGRFTISRDNAKNTVYLQMNSLKPEDTAVFYCARYGYYGHDWGQGTQVTVSS | high polyreactivity |
| QVQLVESGGGLVQAGGSLRLSCAASGSIFVNYAMGWYRQAPGKERELVAAISTGGGRTFYADSVKGRFTISRDNAKNTVYLQMNSLKPEDTAVYYCNNLGRTEYDYWGQGTQVTVSS | high polyreactivity |
| QVQLVESGGGLVQAGGSLRLSCAASGSIFVPNAMGWYRQAPGKERELVAAISGIGGSTSYADSVKGRFTISRDNAKNTVYLQMNSLKPEDTAVYYCARADKLHTRGWGRWGSGSYSWGQGTQVTVSS | low polyreactivity |
| QVQLVESGGGLVQAGGSLRLSCAASGSIFVPYAMGWYIQAPGKERELVAAISSRGGSTYYADSVKGRFTISRDNAKNTVYLQMNSLKPEDTAVYYCNTDISRNYYWALYGYWGQGTQVTVSS | low polyreactivity |
| QVQLVESGGGLVQAGGSLRLSCAASGSIFVPYAMGWYRQAPGKERELVAAINHGGGRTYADSVKGRFTISRDNAKNTVYLQMNSLKPEDTAVYYCAADGAHKIGYYRYYYWGQGTQVTVSS | low polyreactivity |
| QVQLVESGGGLVQAGGSLRLSCAASGSIFVPYAMGWYRQAPGKERELVAVIRYRGGTTYYADSVKGRFTLSRDNAKNTVYLQMNSLKPEDTAVYYCEASARRYPPAAGVPYRYDYWGQGTQVTVSS | high polyreactivity |
